The source of these data is a protein production outcome set (Wang et al. 2014).

This data set is described as follows: label from the status in PepcDB records.

In the case of “MGVFLVLLGGIFWAISGVLAEYLFKNNYSVDWVCFYRLLSTGLILIFLSFKTQKILVFANLKESLSICIFGFFGLLLTQFGYFKAIYYTDAGTATMIQYCAPLIIMLYLCFKNKKFPKLIEIFALILIIFALFLLATKGDIEAVVLNYWGIFWAVIGAFGVAFYSLSAREVILKYGLFWIMGWASLFASFVFLLILQFDKGLIHYAFNLKAFFSMGGIVFIGTIGAFCLYLKGVEYIGALRASMIASIEPVAAALMSFLFLKTRYSLLDIFAFVLIILSVILNAKKTKAS”, the protein production result was “failed”.
As to “MGVISAYAVVHERAAIIDPGTAKGAEIILDEIDRSWNVEYICPTHIHIDHGGGAARLAKALDAKIIVHPRGVKHVVNPEKLWEASKAVLGEVAEIYGKPESIDESKVIAVEDEQEFDLGGERLKVFHAPGHAPHMLVYYLTNSKVLFPADAVGMCFGGVVFPLTPPPFDADAALKTLKRLKGLKVDYVAFTHYGVVELEHHHHHH”, the protein production result is listed as “failed”.
In the case of “MGVKRKKMGKVAGFTEWTAEDLEAFRARWPIGTAQRLALELYQWTGARCVDVIRLGPQMVGRDGVLTYVQQKTGNPAHVPWTCPAFGLEEQRADLMRCLPVGSPVYMLTEYGKPRTQKGVSQWFSAAAREAGLESRTAHGLRKYRMNALAEHGASVLVMQSWVGHTTLLEVQEYTRLEHHHHHH”, the protein production result is reported as “not failed”.
On to “MGVNETGYVLIYGGSSWVSQPQALETIYPAENWQEIIQDFRQKQPDLPVVVIQGPDDEQFVRSLRDYSLDIKVTSPDNVGKLTAMIAGANLMLTTDSAPLHLSVAVQTYTIALFGSTDPVKLLPNSDKLLGIKSSTGRVADILPKAVLEKVWGGLEHHHHHH”, for which the protein production result is “failed”.
Turning to “MGVRLVLRLVPRLVTRFTPLGLGMVALGCALVASFYSPPSFASIWDLLTNKRGVSQASVSKDSPRIELVGTLPADTELELIGFYYSSICTEKEMYFPSGDIANPQWRTKGTTSQLRQVVTSLHNASHFTQSVALQGGGACEWQLTNIQLNMSLLPSHRLWQEAQSLKKQYLAELPVAKVKDEALEKDAFKQSFDLIPTAKEADAASADSNDATITFSPIYYPIYSYAPEDKQPFDVGLKSSLQREVSDRWSLQHSRRIRLADERVTRVNFTPQIAEDYAVNIHILDRKSKVSYPDGTEFTYIKAGLRLYPYGSAESRFNSLQRSARLEDKRQLAKIYDSGIEHVFEGDKAKAEVLYRELGEAGDMESINWLRERARWGYIKDGQYWLARAAKLGDIQAQLELINQPLSVIPQGKVNTGQAKIREQQAWQTLTELTKQGIPQAVSTMAYYQVFSCSPYFNTTAALDNYRKSVKAQPDLARDAAETYYYFKEDLAQAREFFEIAAEREIDVAAEYAGILLAAEQRDPKRARYWLEKVVTAGDKQYIQQDVLGYAYFRLASLLDAGEGGDADPKRAITLYQQSIELGEGFSNDYQAKAKERLQSLQERHL”, the protein production entry is on record as “failed”.
The same measure for “MGVVFAFGFYLIFIKLTGLKLMDYFPRFKENRLKMIFSILSVILAFLINWLIMKNFSFLIEIIHPIASVWIFIILIYLLLRFLFLKRVPLSNYEKKFMGNMSAIAIFLELLKIIEYVDEHNIASPITVALVFFIPVVVFFNCKYFYEMELSS”: “failed”.
With “MGWKMQATVTEIGKHAIDDSEKMIILFGETATDTLKQHAVIQSFPEKDQVTLAEGDHLKIGDTNYTITKVGSFANSNLQSIAHSTLIFADAPTDEDDVIRNGVYLTPHQLPKITIGTTIDYLVNGA”, the protein production entry is listed as “not failed”.
In the case of “MGWVRTKALTMEQPSAPSLTRWLFAGVLMAIIGVLLFILHASGTVKIISVINIWWVSLMPAGCWLLIFCLRCYLWDRDLKAHQFLLKEAEYGQQRWEDWAGRWLAVLSSAVLLPDHISAAHWGSERPQQYGLARRINYLPVEEPVQLSAMHALLTSIEERVQCLPEELPLYVTLITDNPSPELTSSFSNLWKEHIPGRAVPDDITVTGSFSLSEVEERLKQPVLTVNLLLVIQLNGGTAYSDGLAVLLLTSDDVAQKYHLPHSSRLLRPMPLDMTNFEDDITLFLETQTVACQTPSVIGDAKKWTERSAALITQGGKMHTPWKAEDIALLEKWCGIPGPAAPWLLTALAADLVSLRKQPLLALFSSEQEHFISTITPGSEDDYTG” it was “failed”; in that of “MGYLIGGDIISSSPFTKIFYGSCRKIAVFIFSVLSLTIISGILMYFIEGETGGFTSPSLSIYWAIATLLTVGYGDVVLQTSVGRAMASFVSVLGLSIIVVPIFIVIAEIFGLLSRTFSW”, “failed”.
The same measure for “MHDIILMPCPEVSIIILTRNGKATIGECLKQVYAQNYTNFEVIVIDSASTDGTPDIVNNFPVRFFSIDVKDFGHGKTRNYGAKLSKGKYLAYLTQDASPFNEHWLENLIRNFSDEEVAGVYSRNVPRSDCDPFEARYISSGWGSDREVKSMQNCRNYKKLVFFSNTSSCIRKDTWEKFPFNELLVQTEDQDWSKRVLEAGYKIVYDPGSVVVHSHNNSLKILFKKYFDAGTAHIQIFKNRNNVYLPLIPFFSVISTFLDIRFMFFNNYETINIIKWVPRAVVRHFVEATAFWLGLHFDILPQALKRKFTASGHY”: “failed”; for “MHFKKSLVRSLITLAITATASTTVLANEVSGDISKFKSVGNEVNTKQKATGYIVQLKGKTAIAQAQEIGELLPTNQLVANTGNRYNAHTPAMEAYTKALENKQKQVASSIDSINILHSFKHTYNGFTAKLNAKQKAQLESHPDVIGVYEDKLETVNTANTPEFLGLTGAGGQHAMNIKGEGVIIGVIDTGVWPENPSFADDGSYSDPADLGWLGSCDTGTDEEFACNNKLIGAKYFDSSFSSQYDIQYDLGEFDSPRDADGHGSHTASTAGGNESVAAMLSGTPVGTVSGMAPRARIAAYKVCWNSDYKNPEGGDEAGCFGGDTMAAIDAAVTDGVDVINYSIGGSRTDLTVPATAAMLNATAAGVFVAVSAGNDGPDKETVGTPAPWVTSVAASTYNGTSAIVGKALDITSGTLAGSSILSVPSGFSPATVGLSGELALAEPVQACNDAPLTNGEDLAGKIALIARGSCAFTEKFLNAQNAGAVGAIIYTTEGTSPFSMGGTDPAVTITGSMISFADGQSLTASIEDGSTSVAFTDNTAAGEAVEVGNTMADFSSRGPNLNTYDIIKPDITAPGVKILAATTSAPMFGTQGETFKYLQGTSMSSPHIAGLAALFKESNSSWSPAQIKSAMMTTARQNLTKEDGTTQADPYDFGSGHVAPVSALDPGLLFDTNLADYLAFLCGQDKEAFVSGYDTSCADLATAGFSTDASQLNLASIAIAELLEPETIFRTVSNATPIASSYTATVEAPAGFDISVQTFDAAGEETEASTLDVAAEGGKASFAITVSQTETTEIEAWKFGAITWTDGAGHSVRLPLAIKAIPSVQIEVPELISGDLNRGRFRFPVKMLYSGRTSIKHAGLVAPFGTAGTVEADPAQEFEFLGAGTNYHLFHIPEGTQVARFSLSDALVTEEGSDLDLYVYRCDKWSCAQVANSLNGGSNEDVVLTNPEPRADVDVGDVYVTMIHGYSTGAATETDYTMVGWIADQAERTTRVISSRRAINGRFNYTSILTRGLPTGTTYMGAVTYFNAEGEAEGTTVLELKN”: “failed”.
The same measure for “MHFNLPTYLTLLRIVLIPVLTVAFYLPWSGAHVVSGVIFAIAAITDWLDGYLARRMGLATRFGAFLDPVADKLMVAVALVLIVQAEPRPLIALASAIIIGREITIASLREWMAEIGQRKRVEVSALGKWKTTFQMLAITLLLLGLDIPHGGVKTTGELLLVVSATLTLWSMIVYLQAAMPVFKAGAEAE”: “not failed”.
For the sequence “MHGPPESQEPCGTFGPDETTGATSTAASRGEARRLPRGGVLWALVDCNNFYASCERLFRPDLKGRPVVVLSNNDGCVIARSAEAKALGVPMGAPEFKVRDMLRAHDVAVFSSNYALYGDLSQRVMRTLATVVPRVEVYSIDEAFIPLPAALAADPVAVGRTLRQRVAQWVGIPVSVGVGPTRTLAKLANRLSKQDSAYGNVFDLTPETVDMDRVLASVDVGDVWGVGRRSAEMLRGRGILTARALRDADPLWVRQRMTVTGWRTQQELRGMPCLTDDDLPVPRRSIRSSRSFGQMVRTLEPLREAVATFTARAVAKARAEGLVASCIEVHIRTPRHTERPRYDETTTITLPCPTADTGLCIRHALTGLERIFREGYLYAKAGVTLFGLEPAAGRQGSLLDLLDGSHEHKARRERLMAALDAVNLRHGRGSIRHGAEGDPGAAWHMSQKYRSPRYTTAWEELPEVLCR”, the protein production entry is on record as “failed”.
